Positions count from the first letter of the chain named. “Also recorded” adds a separate entry of the source. Where two headings read alike, the source gives them in different places.
Assays:
[1] = Body weight and tolerability in the H292-HGF xenograft study; conditions: for toxicity / body weight loss / tolerability (in words): doses as in E46
Procedure: (§2) At the time of routine monitoring, the animals were checked for any effects of tumor growth and treatments on normal behavior, such as mobility, visual estimation of food and water consumption, body weight gain/loss (body weights were measured twice weekly), eye/hair matting and any other abnormal effect.
(§3) Animals for which the body weight loss exceeded 20%, or for which the mean tumor size of the group exceeds 2000 mm^3 were euthanized. The study was terminated after two weeks of observation after the final dose.

[2] = test system: H292-HGF human lung cancer xenograft; experiment: Efficacy of bispecific molecule and other inhibitors in subcutaneous H292-HGF xenograft model; assay type: in vivo, SCID/Beige mice; conditions: for mean tumor size: ECB38 25 mg/kg; for antitumor activity (in words): doses as in E46
Procedure: The H292-HGF cells were maintained in vitro in RPMI1640 medium supplemented with fetal bovine serum (10% v/v), and L-glutamine (2 mM) at 37° C. in an atmosphere of 5% CO2 in air. The cells were routinely subcultured twice weekly by trypsin-EDTA treatment. The cells growing in an exponential growth phase were harvested and counted for tumor inoculation.
Each mouse was inoculated subcutaneously at the right flank region with H292-HGF tumor cells (2×10^6) in 0.1 ml of PBS with cultrex (1:1) for tumor development. The treatments were started when the mean tumor size reached 139 mm^3. […] The date of tumor cell inoculation was denoted as day 0.
Before commencement of treatment, all animals were weighed and the tumor volumes were measured. Since the tumor volume can affect the effectiveness of any given treatment, mice were assigned into groups using randomized block design based upon their tumor volumes. […] The randomized block design was used to assign experimental animals to groups. First, the experimental animals were divided into homogeneous blocks according to their initial tumor volume. Secondly, within each block, randomization of experimental animals to treatments was conducted.
The major endpoint was whether tumor growth can be delayed or tumor bearing mice can be cured. Tumor size was measured twice weekly in two dimensions using a caliper, and the volume was expressed in mm^3 using the formula: V=0.5 a×b^2 where a and b are the long and short diameters of the tumor, respectively. The tumor size was then used for calculations of both T−C and T/C values. T−C was calculated with T as the time (in days) required for the mean tumor size of the treatment group to reach 1000 mm^3, and C was the time (in days) for the mean tumor size of the control group to reach the same size. The T/C value (in percent) was an indication of antitumor efficacy; T and C were the mean volume of the treated and control groups, respectively, on a given day. Complete tumor regression (CR) is defined as tumors that are reduced to below the limit of palpation (62.5 mm^3). Partial tumor regression (PR) is defined as tumors that are reduced from initial tumor volume. A minimum duration of CR or PR in 3 or more successive tumor measurements is required for a CP or PR to be considered durable.
Statistical analyses of difference in tumor volume among the groups were evaluated using a one-way ANOVA followed by individual comparisons using Games-Howell (equal variance not assumed). All data were analyzed using SPSS 18.0. p<0.05 was considered to be statistically significant.

[3] = mouse, in vivo, ip
Procedure: SCID Beige mice were subcutaneously inoculated with NCI-H292 cells expressing human HGF (2.0×10^6 cells in Cultrex (Trevigen) in a volume of 200 μL) on the dorsal flank of each animal. Tumor measurements were taken twice weekly until tumor volumes ranged between 150-250 mm^3. […] At 6h or 72h after dosing, tumors were extracted and immediately frozen in liquid nitrogen. […] Immediately after collection, the blood samples were centrifuged and the resulting plasma was transferred to sample tubes and stored at −80° C. Tumors were weighed, cut into small pieces, and lysed in Lysing Matrix A tubes (LMA) containing RIPA buffer with HALT protease/phosphatase inhibitors (Pierce), 50 mM sodium fluoride (Sigma), 2 mM activated sodium orthovanadate (Sigma), and 1 mM PMSF (MesoScale Discovery). Lysates were removed from LMA matrix and centrifuged to remove insoluble protein. The soluble tumor protein was quantified with a BCA protein assay and diluted to equivalent protein levels in tumor lysis buffer. Phosphorylated c-Met, EGFR and ERK were measured using assay plates from MesoScale Discovery (according to Manufacturer's protocol and as described above).

[4] = test system: H292-HGF tumor xenografts; experiment: Tumor efficacy study with bispecific EGFR/c-Met molecules of variable affinity; assay type: in vivo, SCID Beige mice; conditions: 25 mg/kg three times per week
Procedure: One week after implantation, mice were stratified into groups with equivalent tumor volumes (mean tumor volume=77.9+/−1.7 mm^3). Mice were dosed three times per week with the bispecific molecules and tumor volumes were recorded twice weekly.

[5] = mouse, in vivo
Procedure: as §2, §3

H292 cells = experiment: Inhibition of proliferation of H292 cells (HGF-induced); assay type: cell-based, human
Excerpt: Inhibition of tumor cell proliferation can be measured using standard methods and methods described herein.
It was verified that the enhanced potency for inhibition of EGFR and c-Met phosphorylation with the bispecific EGFR/c-Met molecules translated into an enhanced inhibition of signaling and proliferation. […] The proliferation assay was completed using different combinations EGFR and c-Met binding FN3 domains either as a mixture or linked in a bispecific format. […] This confirmed that the avidity effect observed at the level of the receptors (FIG. 6 and FIG. 7) translates into an improvement in inhibiting cell signaling (Table 17) and cell proliferation (Table 18).
Select EGFR/c-Met molecules were characterized for their affinity to both EGFR and c-Met, their ability to inhibit EGFR and c-Met autophosphorylation, and their effect on proliferation of HGF cells. Binding affinity of the bispecific EGFR/c-Met molecules to recombinant EGFR and/or c-Met extracellular domain was further by surface Plasmon resonance methods using a Proteon Instrument (BioRad) according to protocol described in Example 3.

EGFR [6] = molecular target: T1, EGFR (Homo sapiens, UniProt P00533); experiment: Inhibition of EGFR phosphorylation in NCI-H596 cells; assay type: cell-based; conditions: FIG. 7B
Procedure: (§1) NCI-H292, NCI-H441, or NCI-H596 cells were plated in 96 well plates in RPMI medium containing 10% FBS. 24 hours later, medium was replaced with serum free RPMI. […] Cells were treated for 1h with the monospecific or bispecific molecules and then stimulated with EGF, HGF, or a combination of EGF and HGF for 15 minutes at 37° C., 5% CO2. Cells were lysed with MSD Lysis Buffer and cell signaling was assessed using appropriate MSD Assay plates, according to manufacturer's instructions, as described above.

EGFR [7] = molecular target: T1, EGFR; experiment: Inhibition of EGFR phosphorylation in NCI-H292 cells; assay type: cell-based; conditions: FIG. 7A
Procedure: as §1
Purified bispecific PEG24-maleimide conjugates were tested for their ability to inhibit EGF-stimulated phosphorylation of EGFR in the human tumor cell line NCI-H292 (American Type Culture Collection, cat. #CRL-1848) using the EGFR phospho(Tyr1173) kit from Meso Scale Discovery (Gaithersburg, Md.) and as described in Example 3.

EGFR [8] = molecular target: T1, EGFR; experiment: Inhibition of EGFR phosphorylation in NCI-H441 cells; assay type: cell-based; conditions: FIG. 7C
Procedure: as §1

[9] = day 23 after tumor inoculation, Crizotinib 50 mg/kg, Erlotinib 50 mg/kg, Cetuximab 1 mg/mouse

Question: What does the source list for `C[C@@H](Oc1cc(-c2cnn(C3CCNCC3)c2)cnc1N)c1c(Cl)ccc(F)c1Cl` [Crizotinib, crizotinib]?
Answer: toxicity / body weight loss / tolerability (in words) [1]: More severe body weight loss; Tumor volume (mm^3) ([2]; day 9 after tumor inoculation, mean ± SEM, bispecific 25 mg/kg, Crizotinib 50 mg/kg, Erlotinib 50 mg/kg, Cetuximab 1 mg/mouse): 217 ± 20 mm^3; Tumor volume (mm^3) ([2]; day 13 after tumor inoculation, mean ± SEM, bispecific 25 mg/kg, Crizotinib 50 mg/kg, Erlotinib 50 mg/kg, Cetuximab 1 mg/mouse): 547 ± 43 mm^3; Tumor volume (mm^3) ([2]; day 16 after tumor inoculation, mean ± SEM, bispecific 25 mg/kg, Crizotinib 50 mg/kg, Erlotinib 50 mg/kg, Cetuximab 1 mg/mouse): 914 ± 92 mm^3; Tumor volume (mm^3) ([2]; day 20 after tumor inoculation, mean ± SEM, bispecific 25 mg/kg, Crizotinib 50 mg/kg, Erlotinib 50 mg/kg, Cetuximab 1 mg/mouse): 1438 ± 239 mm^3; T/C (%) ([2]; day 23, mean volume of treated vs control group, doses as in the Treatment column): 120%; Tumor Size (mm^3) at day 23 ([2]; day 23, mean ± SEM, bispecific 25 mg/kg, Crizotinib 50 mg/kg, Erlotinib 50 mg/kg, combination 50 mg/kg + 50 mg/kg, Cetuximab 1 mg/mouse): 2102 ± 298 mm^3; mean tumor size [2, 9]: 2,102 mm^3; Tumor volume (mm^3) ([2]; day 23 after tumor inoculation, mean ± SEM, bispecific 25 mg/kg, Crizotinib 50 mg/kg, Erlotinib 50 mg/kg, Cetuximab 1 mg/mouse): 2102 ± 298 mm^3; antitumor activity (in words) [2]: no antitumor activity

Question: Which “toxicity / body weight loss / tolerability (in words)” value [1] does the source give for `C#Cc1cccc(Nc2ncnc3cc(OCCOC)c(OCCOC)cc23)c1` [Erlotinib, erlotinib] here?
Answer: More severe body weight loss

B1: ECB39: bispecific SEQ ID 121: P53A1R5-17V2, (AP)5, P114AR7P94-A3, linked to albumin binding domain (protein)
chain: MLPAPKNLVVSEVTEDSARLSWADPHGFYDSFLIQYQESEKVGEAIVLTVPGSERSYDLTGLKPGTEYTVSIYGVHNVYKDTNMRGLPLSAIFTTAPAPAPAPAPLPAPKNLVVSRVTEDSARLSWTAPDAAFDSFWIRYFEFLGSGEAIVLTVPGSERSYDLTGLKPGTEYVVNIMGVKGGKISPPLSAIFTTAPAPAPAPAPLAEAKVLANRELDKYGVSDYYKNLINNAKTVEGVKALLDEILAALP
modifications: Bispecific EGFR/c-Met binding molecule
Question: What does the source list for B1?
Answer: tumor accumulation (in words) [3]: significantly more tumor accumulation at 6 hours relative to the other molecules; tumor growth / tumor growth inhibition (in words) [4]: showed the most efficacy

B2: ECB38: bispecific SEQ ID 120: P54AR4-83V2, (AP)5, P114AR7P94-A3, linked to albumin binding domain (protein)
chain: B1 chain with A23D, H26W, G27A, D30E
modifications: Bispecific EGFR/c-Met binding molecule
Question: For B2, which “toxicity / body weight loss / tolerability (in words)” value [5] is on record?
Answer: Slight toxicity

Question: What about the “mice euthanized when BWL>20% during the treatment period” value ([1]; 25 mg/kg) of the same molecule?
Answer: 3 mice

Question: And the “mice in which the treatment was tolerated” value ([1]; 25 mg/kg, 3 times/week x 3 weeks)?
Answer: 7 out of 10

Question: What about the “tumor growth / tumor growth inhibition (in words)” value [4] of the same molecule?
Answer: showed the most efficacy

Question: What about the mean tumor size [2, 9] of the same molecule?
Answer: 23 mm^3

Question: What about the “antitumor activity (in words)” value [2] of the same molecule?
Answer: complete tumor regression (CR) in all mice; also recorded: complete response

B3: ECB107: bispecific SEQ ID 66: P54AR4-83V23, (AP)5, P114AR9P121-A6v2 (protein)
chain: MLPAPKNLVVSEVTEDSARLSWDDPHAFYESFLIQYQESEKVGEAIVLTVPGSERSYDLTGLKPGTEYTVSIYGVHNVYKDTNIRGLPLSAIFTTAPAPAPAPAPLPAPKNLVVSRVTEDSARLSWTAPDAAFDSFWIRYFEFVGSGEAIVLTVPGSERSYDLTGLKPGTEYVVNILGVKGGSISPPLSAIFTT
modifications: bispecific EGFR/cMet binding molecule
Question: With B3 as the molecule, how does the IC50 (H292 cells) read?
Answer: 2640 nM

B4: ECB108: bispecific SEQ ID 67: P54AR4-83V23, (AP)5, P114AR9P122-A7v2 (protein)
chain: B3 chain with G145S, S146K, E148D
modifications: bispecific EGFR/cMet binding molecule
Question: For B4, which IC50 (H292 cells) is on record?
Answer: 11400 nM

B5: ECB109: bispecific SEQ ID 68: P54AR4-83V23, (AP)5, P114AR7P95-C5V2 (protein)
chain: B3 chain with V144L, G178S
modifications: bispecific EGFR/cMet binding molecule
Question: Which IC50 (H292 cells) does the source give for B5 here?
Answer: 574 nM

B6: ECB5: bispecific SEQ ID 54: P53A1R5-17V2, (GGGGS)4, P114AR7P94-A3 (protein)
chain: MLPAPKNLVVSEVTEDSARLSWADPHGFYDSFLIQYQESEKVGEAIVLTVPGSERSYDLTGLKPGTEYTVSIYGVHNVYKDTNMRGLPLSAIFTTGGGGSGGGGSGGGGSGGGGSMLPAPKNLVVSRVTEDSARLSWTAPDAAFDSFWIRYFEFLGSGEAIVLTVPGSERSYDLTGLKPGTEYVVNIMGVKGGKISPPLSAIFTT
modifications: bispecific EGFR/cMet binding molecule
Question: What does the source list for B6?
Answer: inhibition of phosphorylation of EGFR, bispecific vs monospecific (in words) (EGFR [6]): comparable; inhibition of phosphorylation of EGFR, bispecific vs monospecific (in words) (EGFR [7]): comparable; decrease of IC50 for inhibition of EGFR phosphorylation compared to the monospecific EGFR-binding FN3 domain (EGFR [8]): 30 fold

— patent US11702475B2, “Cysteine engineered fibronectin type III domain binding molecules” (Janssen Biotech, Inc., priority 2013, dated 2023)
